In paper PMC6323126:

B1: FHA domain (residues 5–135) of SLMAP [human] / MST2 kinase domain (residues 1–308) [human] (parent)
chain 1: LAIFTCRPNSHPFQERHVYLDEPIKIGRSVARCRPAQNNATFDCKVLSRNHALVWFDHKTGKFYLQDTKSSNGTFINSQRLSRGSEESPPCEILSGDIIQFGVDVTENTRKVTHGCIVSTIKLFLPDGMEA
chain 2: MEQPPAPKSKLKKLSEDSLTKQPEEVFDVLEKLGEGSYGSVFKAIHKESGQVVAIKQVPVESDLQEIIKEISIMQQCDSPYVVKYYGSYFKNTDLWIVMEYCGAGSVSDIIRLRNKTLIEDEIATILKSTLKGLEYLHFMRKIHRDIKAGNILLNTEGHAKLADFGVAGQLTDTMAKRNTVIGTPFWMAPEVIQEIGYNCVADIWSLGITSIEMAEGKPPYADIHPMRAIFMIPTNPPPTFRKPELWSDDFTDFVKKCLVKNPEQRATATQLLQHPFIKNAKPVSILRDLITEAMEIKAKRHEEQQRE

Variants of: B1
Assay: BLI
Details: with MST2 kinase domain (residues 1–308) [human]; read at the end of association (about 360 s); parent: 2.1; read off a plot

response [nm] | Variant
0.57 | chain 1 LAIFTCRPNSHPFQERHVYLDEPIKIGRSVARCRPAQNNATFDCKVLSANHALVWFDHKTGKFYLQDTKSSNGTFINSQRLSRGSEESPPCEILSGDIIQFGVDVTENTRKVTHGCIVSTIKLFLPDGMEA [chain 1 R49A]
